US20160024487

Legend:
[1] = target: T1, Lys(Dnp)-ATNATATPRIVGG-Lys(Abz)
T1 chain: KATNATATPRIVGGK

[2] = target: T2, Lys(Dnp)-ATNATFKPRIVGG-Lys(Abz)
T2 chain: KATNATFKPRIVGGK

[3] = target: T3, Lys(Dnp)-ATNATFRPRIVGG-Lys(Abz)
T3 chain: KATNATFRPRIVGGK

[4] = target: T4, Lys(Dnp)-ATNATIVPRIVGG-Lys(Abz)
T4 chain: KATNATIVPRIVGGK

[5] = target: T5, Lys(Dnp)-ATNATIYPRIVGG-Lys(Abz)
T5 chain: KATNATIYPRIVGGK

[6] = target: T6, Lys(Dnp)-ATNATLSPRIVGG-Lys(Abz)
T6 chain: KATNATLSPRIVGGK

[7] = target: T7, Lys(Dnp)-ATNATMGPRIVGG-Lys(Abz)
T7 chain: KATNATMGPRIVGGK

[8] = target: T8, Lys(Dnp)-ATNATMIPRIVGG-Lys(Abz)
T8 chain: KATNATMIPRIVGGK

[9] = target: T9, Lys(Dnp)-ATNATMYPRIVGG-Lys(Abz)
T9 chain: KATNATMYPRIVGGK

[10] = target: T10, Lys(Dnp)-ATNATWGPRIVGG-Lys(Abz)
T10 chain: KATNATWGPRIVGGK

[11] = target: T11, Lys(Dnp)-ATNATWPPRIVGG-Lys(Abz)
T11 chain: KATNATWPPRIVGGK

[12] = target: T12, Lys(Dnp)-ATNATYTPRIVGG-Lys(Abz)
T12 chain: KATNATYTPRIVGGK

[13] = target: T13, Lys(Dnp)-ATNATYWPRIVGG-Lys(Abz)
T13 chain: KATNATYWPRIVGGK

[14] = target: T14, Lys(Dnp)-ATNATALPRIVGG-Lys(Abz)
T14 chain: KATNATALPRIVGGK

[15] = target: T15, Lys(Dnp)-ATNATAWPRIVGG-Lys(Abz)
T15 chain: KATNATAWPRIVGGK

[16] = target: T16, Lys(Dnp)-ATNATERPRIVGG-Lys(Abz)
T16 chain: KATNATERPRIVGGK

[17] = target: T17, Lys(Dnp)-ATNATEVPRIVGG-Lys(Abz)
T17 chain: KATNATEVPRIVGGK

[18] = target: T18, Lys(Dnp)-ATNATGEPRIVGG-Lys(Abz)
T18 chain: KATNATGEPRIVGGK

[19] = target: T19, Lys(Dnp)-ATNATGLPRIVGG-Lys(Abz)
T19 chain: KATNATGLPRIVGGK

[20] = target: T20, Lys(Dnp)-ATNATGNPRIVGG-Lys(Abz)
T20 chain: KATNATGNPRIVGGK

[21] = target: T21, Lys(Dnp)-ATNATHEPRIVGG-Lys(Abz)
T21 chain: KATNATHEPRIVGGK

[22] = target: T22, Lys(Dnp)-ATNATHNPRIVGG-Lys(Abz)
T22 chain: KATNATHNPRIVGGK

[23] = target: T23, Lys(Dnp)-ATNATHPPRIVGG-Lys(Abz)
T23 chain: KATNATHPPRIVGGK

[24] = target: T24, Lys(Dnp)-ATNATISPRIVGG-Lys(Abz)
T24 chain: KATNATISPRIVGGK

[25] = target: T25, Lys(Dnp)-ATNATKHPRIVGG-Lys(Abz)
T25 chain: KATNATKHPRIVGGK

[26] = target: T26, Lys(Dnp)-ATNATKMPRIVGG-Lys(Abz)
T26 chain: KATNATKMPRIVGGK

[27] = target: T27, Lys(Dnp)-ATNATKRPRIVGG-Lys(Abz)
T27 chain: KATNATKRPRIVGGK

[28] = target: T28, Lys(Dnp)-ATNATLEPRIVGG-Lys(Abz)
T28 chain: KATNATLEPRIVGGK

[29] = target: T29, Lys(Dnp)-ATNATLNPRIVGG-Lys(Abz)
T29 chain: KATNATLNPRIVGGK

[30] = target: T30, Lys(Dnp)-ATNATMPPRIVGG-Lys(Abz)
T30 chain: KATNATMPPRIVGGK

[31] = target: T31, Lys(Dnp)-ATNATQDPRIVGG-Lys(Abz)
T31 chain: KATNATQDPRIVGGK

[32] = target: T32, Lys(Dnp)-ATNATQHPRIVGG-Lys(Abz)
T32 chain: KATNATQHPRIVGGK

[33] = target: T33, Lys(Dnp)-ATNATRDPRIVGG-Lys(Abz)
T33 chain: KATNATRDPRIVGGK

[34] = target: T34, Lys(Dnp)-ATNATSEPRIVGG-Lys(Abz)
T34 chain: KATNATSEPRIVGGK

[35] = target: T35, Lys(Dnp)-ATNATTPPRIVGG-Lys(Abz)
T35 chain: KATNATTPPRIVGGK

[36] = target: T36, Lys(Dnp)-ATNATTWPRIVGG-Lys(Abz)
T36 chain: KATNATTWPRIVGGK

[37] = target: T37, Lys(Dnp)-ATNATTYPRIVGG-Lys(Abz)
T37 chain: KATNATTYPRIVGGK

[38] = target: T38, Lys(Dnp)-ATNATVRPRIVGG-Lys(Abz)
T38 chain: KATNATVRPRIVGGK

[39] = target: T39, Lys(Dnp)-ATNATWWPRIVGG-Lys(Abz)
T39 chain: KATNATWWPRIVGGK

[40] = target: T40, Lys(Dnp)-ATNATWYPRIVGG-Lys(Abz)
T40 chain: KATNATWYPRIVGGK

[41] = target: T41, Lys(Dnp)-ATNATYYPRIVGG-Lys(Abz)
T41 chain: KATNATYYPRIVGGK

B1: Human plasma purified Factor Xa (protein)
chain 1: ANSFLEEMKKGHLERECMEETCSYEEAREVFEDSDKTNEFWNKYKDGDQCETSPCQNQGKCKDGLGEYTCTCLEGFEGKNCELFTRKLCSLDNGDCDQFCHEEQNSVVCSCARGYTLADNGKACIPTGPYPCGKQTLER
chain 2: IVGGQECKDGECPWQALLINEENEGFCGGTILSEFYILTAAHCLYQAKRFKVRVGDRNTEQEEGGEAVHEVEVVIKHNRFTKETYDFDIAVLRLKTPITFRMNVAPACLPERDWAESTLMTQKTGIVSGFGRTHEKGRQSTRLKMLEVPYVDRNSCKLSSSFIITQNMFCAGYDTKQEDACQGDSGGPHVTRFKDTYFVTGIVSWGEGCARKGKYGIYTKVTAFLKWIDRSMKTRGLPKAKSHAPEVITSSPLK
- FXa kcat/KM [1]: 330 M⁻¹ s⁻¹
- FXa kcat/KM [2]: 55 M⁻¹ s⁻¹
- FXa kcat/KM [3]: 430 M⁻¹ s⁻¹
- FXa kcat/KM [4]: 360 M⁻¹ s⁻¹
- FXa kcat/KM [5]: 220 M⁻¹ s⁻¹
- FXa kcat/KM [6]: 690 M⁻¹ s⁻¹
- FXa kcat/KM [7]: 54 M⁻¹ s⁻¹
- FXa kcat/KM [8]: 220 M⁻¹ s⁻¹
- FXa kcat/KM [9]: 110 M⁻¹ s⁻¹
- FXa kcat/KM [10]: 61 M⁻¹ s⁻¹
- FXa kcat/KM [11]: 17 M⁻¹ s⁻¹
- FXa kcat/KM [12]: 29 M⁻¹ s⁻¹
- FXa kcat/KM [13]: 54 M⁻¹ s⁻¹

B2: Human plasma purified Factor Xa (Molecular Innovations, Inc) (protein)
chain 1: ANSFLEEMKKGHLERECMEETCSYEEAREVFEDSDKTNEFWNKYKDGDQCETSPCQNQGKCKDGLGEYTCTCLEGFEGKNCELFTRKLCSLDNGDCDQFCHEEQNSVVCSCARGYTLADNGKACIPTGPYPCGKQTLER
chain 2: IVGGQECKDGECPWQALLINEENEGFCGGTILSEFYILTAAHCLYQAKRFKVRVGDRNTEQEEGGEAVHEVEVVIKHNRFTKETYDFDIAVLRLKTPITFRMNVAPACLPERDWAESTLMTQKTGIVSGFGRTHEKGRQSTRLKMLEVPYVDRNSCKLSSSFIITQNMFCAGYDTKQEDACQGDSGGPHVTRFKDTYFVTGIVSWGEGCARKGKYGIYTKVTAFLKWIDRSMKTRGLPKAKSHAPEVITSSPLK
- FXa kcat/KM [14]: 300 M⁻¹ s⁻¹
- FXa kcat/KM [15]: 460 M⁻¹ s⁻¹
- FXa kcat/KM [16]: 300 M⁻¹ s⁻¹
- FXa kcat/KM [17]: 24 M⁻¹ s⁻¹
- FXa kcat/KM [18]: 87 M⁻¹ s⁻¹
- FXa kcat/KM [19]: 78 M⁻¹ s⁻¹
- FXa kcat/KM [20]: 52 M⁻¹ s⁻¹
- FXa kcat/KM [21]: 96 M⁻¹ s⁻¹
- FXa kcat/KM [22]: 71 M⁻¹ s⁻¹
- FXa kcat/KM [23]: 7 M⁻¹ s⁻¹
- FXa kcat/KM [24]: 610 M⁻¹ s⁻¹
- FXa kcat/KM [25]: 56 M⁻¹ s⁻¹
- FXa kcat/KM [26]: 140 M⁻¹ s⁻¹
- FXa kcat/KM [27]: 91 M⁻¹ s⁻¹
- FXa kcat/KM [28]: 690 M⁻¹ s⁻¹
- FXa kcat/KM [29]: 940 M⁻¹ s⁻¹
- FXa kcat/KM [30]: 4.1 M⁻¹ s⁻¹
- FXa kcat/KM [31]: 680 M⁻¹ s⁻¹
- FXa kcat/KM [32]: 550 M⁻¹ s⁻¹
- FXa kcat/KM [33]: 1400 M⁻¹ s⁻¹
- FXa kcat/KM [34]: 22 M⁻¹ s⁻¹
- FXa kcat/KM [35]: 72 M⁻¹ s⁻¹
- FXa kcat/KM [36]: 21 M⁻¹ s⁻¹
- FXa kcat/KM [37]: 23 M⁻¹ s⁻¹
- FXa kcat/KM [38]: 430 M⁻¹ s⁻¹
- FXa kcat/KM [39]: 70 M⁻¹ s⁻¹
- FXa kcat/KM [40]: 60 M⁻¹ s⁻¹
- FXa kcat/KM [41]: 48 M⁻¹ s⁻¹
